From the supplement of paper PMC10724198

Tests used:
Saccharomyces cerevisiae [1] = test: protein stability index of tFT-peptide fusion in wild type (PSI (0-1 scale)); higher = more stable (slower turnover); settings: genetic background: wild type
Saccharomyces cerevisiae [2] = test: protein stability index of tFT-peptide fusion in deletion strain of DOA10 (PSI (0-1 scale)); higher = more stable (slower turnover)
Description: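 MPS profiling in S. cerevisiae of two library types built from selected 12-aa C-degron peptides (IN1, IN2, LN1, LN3, VN2, R1-R5, W1-W3, Atg1 and Rpa12 C-termini): saturation mutagenesis libraries and C-terminal +1 capping libraries (13 aa). Each peptide is fused to the C-terminus of a sfGFP-mCherry timer, after a GGGS linker. Cells are FACS-sorted into 8 mCherry/sfGFP bins and sequenced. PSI runs from 0 (unstable) to 1 (stable), measured once in wild type and in the das1Δ or doa10Δ background.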
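For protein stability index of tFT-peptide fusion in deletion strain of DOA10 in this document: PSI per variant is the weighted mean of its sequencing read distribution over the sorted stability bins, counting only variants with over 10 reads summed across bins.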
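For protein stability index of tFT-peptide fusion in wild type in this document: PSI derived as read-weighted mean over the 8 sorting bins, only variants exceeding 10 total reads kept, mCherry placed adjacent to the peptide and sfGFP distal.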

Row | Sequence | protein stability index (Saccharomyces cerevisiae [1]) | protein stability index (Saccharomyces cerevisiae [2])
1 | AITLPMCPLPLR | 0.648 | 0.664
2 | RSLDVLLPLYFR | 0.244 | 0.685
3 | AITHPMCPLLLR | 0.455 | 0.676
4 | RSLRVLLPRYFR | 0.637 | 0.664
5 | AITLFMCPLLLR | 0.364 | 0.644
6 | PITLPMCPLLLR | 0.471 | 0.648
7 | GLDMCSVGCWFR | 0.328 | 0.689
8 | CLVSLPIRLFFR | 0.0878 | 0.658
9 | RVTRLDAIYFRIL | 0.0595 | 0.0992
10 | CLVSLPIDLFFR | 0.648 | 0.698
11 | RVTRLDAIYFAI | 0.481 | 0.542
12 | RVTRLDAIYTRI | 0.688 | 0.716
13 | RVTNLDAIYFRI | 0.55 | 0.677
14 | RSLRVLLPLYFRC | 0.218 | 0.476
15 | SLYMCSVGCWFR | 0.387 | 0.644
16 | PSLRVLLPLYFR | 0.285 | 0.679
17 | RSLRVLLPAYFR | 0.577 | 0.65
18 | RSLFVLLPLYFR | 0.265 | 0.613
19 | RVTRLDAIYFMI | 0.162 | 0.173
20 | RVTRLDAIYQRI | 0.664 | 0.707
21 | CLVSLPILLFAR | 0.161 | 0.239
22 | AITLPMCYLLLR | 0.0897 | 0.638
23 | GLYMCSVGCWFRM | 0.154 | 0.374
